Assay results from doi:10.1101/2021.05.23.445342 (bioRxiv, 2021).

How the values were obtained:
[1] = target: T1, Calcineurin (human PPP3CA / PPP3R1 heterodimer) (human, UniProt Q08209 1-521; P63098 1-170); assay: SPR; Biacore T200, 25 °C; biotin-Cys-AKAP constructs immobilised on an SA chip, Calcineurin as analyte; 10 mM PIPES pH 6.5, 150 mM NaCl, 0.05% Tween20; apparent Kd from fit of the response at the end of association vs concentration ('steady-state'); conditions: both partners purified
T1 construct: Calcineurin A subunit, human PPP3CA, from pET15b CnA CnB; Calcineurin B subunit, human PPP3R1, from pET15b CnA CnB; also called Cn; PP2B; source: E. coli BL21(DE3) or BL21 Star (DE3), purified (ammonium sulphate, Ni-NTA, Resource Q, S200 SEC)

[2] = target: T1, Calcineurin (human PPP3CA / PPP3R1 …); assay: ITC; ITC200, 25 °C; 250 µM AKAP5c or AKAP5c_(ILVF->SA) injected into 18.32 µM Calcineurin; 10 mM Tris/HCl pH 7.4, 150 mM NaCl, 5 mM DTT; 1-site model (average of two repeats) and 2-site model with fixed N = 1 (global fit); conditions: both partners purified

B1: Biotin-Cys-AKAP5c_(ILVF->SA) (domain or fragment)
chain: CVAEETKPKDTELSQESDFKENGITEEKSKSEESKRMEPIAIIITDTEISEFDVTKSKNVPKQASASAENEQVGVFANDNGFEDRTSEQYETASAETASSLVKNAAQSSAEQSANEMASDDNKINNLLQ
modifications: biotin (EZ-Link Maleimide-PEG2-Biotin) on the unique added N-terminal Cys
notes: unique Cys added immediately after the GS of the thrombin or TEV site; AKAP5 (AKAP79), human, residues 300-427; all I, L, V and F residues of the three secondary sites mutated to S or A; A GS remnant of the protease site probably precedes the Cys; also called AKAP5c_(ILVF->SA) (on the SPR surface); source: E. coli BL21(DE3) or BL21 Star (DE3), purified (heat step, Ni-NTA, Resource Q), …
- Kd [1]: ~600 nM

B2: AKAP5c_(ILVF->SA) (domain or fragment)
chain: VAEETKPKDTELSQESDFKENGITEEKSKSEESKRMEPIAIIITDTEISEFDVTKSKNVPKQASASAENEQVGVFANDNGFEDRTSEQYETASAETASSLVKNAAQSSAEQSANEMASDDNKINNLLQ
notes: AKAP5 (AKAP79), human, residues 300-427; all I, L, V and F residues of the three secondary sites mutated to S or A; PIAIIIT site present; Generated by gene synthesis (GeneArt); 15N-labelled for NMR, unlabelled for ITC; also called AKAP_(ILVF->SA); source: E. coli BL21(DE3) or BL21 Star (DE3), purified (heat step, Ni-NTA, Resource Q)
- Kd [2]: 1500 nM
- stoichiometry N [2]: 0.99 AKAP5c:Cn
